The values below come from the supplement of paper PMC7125110.

± gives the standard error. Variants at the floor of the assay were thinned out.

B1: glmS ribozyme (parent)
chain: AUAAAAGCGCCAGAACUACAGAAAUGUAGUUGACGAGGAGGAGGUUUAUCGAAUUUUCGGCGGAUGCCUCCAAA

Holding throughout (conditions): with glucosamine-6-phosphate
In series [1] the parent is B1. Briefly: self-cleavage kobs at 40 uM GlcN6P; higher = faster cleavage; RNA array. An outline of the steps:
(§1)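 Weighted Michaelis–Menten fits across concentrations supplied kcat and KM, based on kobs from one- or two-exponential decay fits to normalised per-tile medians. The data came from barcoded ribozyme variants transcribed in situ by E. coli RNA polymerase on sequenced MiSeq chips and tracked at 37 °C by a hybridised Cy3 probe. Glucosamine-6-phosphate (40 μM to 10 mM) in HEPES/KCl/Mg(OAc)2 buffer was flowed in.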

Variants of B1 are the subject of series [2]. Briefly: self-cleavage kobs at 160 uM GlcN6P; higher = faster cleavage; RNA array. An outline of the steps:
as §1

Series [3] covers variants of B1. Briefly: self-cleavage kobs at 640 uM GlcN6P; higher = faster cleavage; RNA array. An outline of the steps:
as §1

Series [4] covers variants of B1. Briefly: self-cleavage kobs at 2500 uM GlcN6P; higher = faster cleavage; RNA array. In short, it runs like this: as §1
Series [5] covers variants of B1. In words: self-cleavage kobs at 10000 uM GlcN6P; higher = faster cleavage; RNA array. An outline of the steps: as §1

In the case of AUAAAAGCGCCAGAACUACAGAAAUGUAAUUGACGAGGAGGAGGUUUAUCGAACUUUCGGCGGAUGCCUCCAAA [G29A U54C], in the series with glucosamine-6-phosphate [1], the “self-cleavage kobs at 40 uM GlcN6P” value stood at 0.000148 ± 3.6e-05 s⁻¹. Besides, the “self-cleavage kobs at 160 uM GlcN6P” value with glucosamine-6-phosphate [2] turned out to be 0.000257 ± 7e-05 s⁻¹. Also, in the series with glucosamine-6-phosphate [3], the “self-cleavage kobs at 640 uM GlcN6P” value was determined as 0.000813 ± 0.00033 s⁻¹. Moreover, the “self-cleavage kobs at 2500 uM GlcN6P” value in the series with glucosamine-6-phosphate [4] is 0.00138 ± 0.00056 s⁻¹.
For the variant AUAAAAGCGCCAGAACUACAGAAAUGUAGUUGACGAUGUGGAGGUUUAUCGAAUUUUCGGCGGAUGCCUGCAAA [G37U A39U C70G], the “self-cleavage kobs at 40 uM GlcN6P” value with glucosamine-6-phosphate [1] is under 1e-05 s⁻¹.
Take AUAAAAGUGCCAGAUCUACAGAAAUGUAGGUGACCAGGAGUAGGUUUAUCGAAUUUUCGGCGGAUGCCUCCAAA [C8U A15U U30G G35C G41U]: the “self-cleavage kobs at 40 uM GlcN6P” value with glucosamine-6-phosphate [1] was under 1e-05 s⁻¹. For the same variant, the “self-cleavage kobs at 640 uM GlcN6P” value with glucosamine-6-phosphate [3] is under 1e-05 s⁻¹. In addition, the “self-cleavage kobs at 2500 uM GlcN6P” value with glucosamine-6-phosphate [4] is under 1e-05 s⁻¹.
As to AUAAAAGCGCCACAACUACAGAAAUGUAGUUGACAAGGAGGAGGUUUAUCGAAUUUUCGGCGGAUGCCUCCAAA [G13C G35A], the “self-cleavage kobs at 40 uM GlcN6P” value in the series with glucosamine-6-phosphate [1] was under 1e-05 s⁻¹. The “self-cleavage kobs at 160 uM GlcN6P” value with glucosamine-6-phosphate [2] was under 1e-05 s⁻¹. Besides, in the series with glucosamine-6-phosphate [3], the “self-cleavage kobs at 640 uM GlcN6P” value is under 1e-05 s⁻¹. Moreover, the “self-cleavage kobs at 2500 uM GlcN6P” value with glucosamine-6-phosphate [4] is under 1e-05 s⁻¹. In the series with glucosamine-6-phosphate [5], the “self-cleavage kobs at 10000 uM GlcN6P” value is under 1e-05 s⁻¹.
On to AUAAAAGCGCCAGAACUACAGAAAUGUAGUUGACGAGUAGGAGAUUUAUCGAAUUUUCGGCGGAUGCCUCCAAA [G38U G44A], for which the “self-cleavage kobs at 40 uM GlcN6P” value with glucosamine-6-phosphate [1] is under 1e-05 s⁻¹. In the series with glucosamine-6-phosphate [2], the “self-cleavage kobs at 160 uM GlcN6P” value was under 1e-05 s⁻¹. Besides, the “self-cleavage kobs at 640 uM GlcN6P” value with glucosamine-6-phosphate [3] is under 1e-05 s⁻¹. For the same variant, in the series with glucosamine-6-phosphate [4], the “self-cleavage kobs at 2500 uM GlcN6P” value was under 1e-05 s⁻¹. Also, the “self-cleavage kobs at 10000 uM GlcN6P” value in the series with glucosamine-6-phosphate [5] is under 1e-05 s⁻¹.
Regarding AUAAAAGCGCCAGAACUAAAGAAAUGUAGUUGACGAGGAGGAGGUUUAUCGAAUUGUCGGCGGAUGCUUCCAAA [C19A U56G C68U], the “self-cleavage kobs at 40 uM GlcN6P” value with glucosamine-6-phosphate [1] turned out to be 0.000112 ± 3.6e-05 s⁻¹. The “self-cleavage kobs at 2500 uM GlcN6P” value in the series with glucosamine-6-phosphate [4] turned out to be 0.00041 ± 7.6e-05 s⁻¹. Besides, in the series with glucosamine-6-phosphate [5], the “self-cleavage kobs at 10000 uM GlcN6P” value was found to be 0.000435 ± 9.2e-05 s⁻¹.
Regarding AUAAAAGCGCCAGAACUACAGAAAUGUAGGUAACCAGGAGGCGGUUUAUCGAAUUUUCGGCGGAUGCCUCCAAA [U30G G32A G35C A42C], the “self-cleavage kobs at 40 uM GlcN6P” value with glucosamine-6-phosphate [1] is under 1e-05 s⁻¹.
Same read-out and setting: with AUAAAAGCGCCAGACCUACAGAAAUGUAGUUGACGAGGAGGAGGUAUAUCGAAUUUUUGGCGGAUGCCUCCAAA [A15C U46A C58U] the figure was under 1e-05 s⁻¹.
As to AUAAAAGCGCCAGAACUACAGAAAUGUAGUUGACCAGGAGGAGGUUUAUCGAAUUUUCGGGGGAUGCCUCCAAA [G35C C61G], in the series with glucosamine-6-phosphate [1], the “self-cleavage kobs at 40 uM GlcN6P” value was under 1e-05 s⁻¹. Further, the “self-cleavage kobs at 160 uM GlcN6P” value with glucosamine-6-phosphate [2] was under 1e-05 s⁻¹. Also, the “self-cleavage kobs at 640 uM GlcN6P” value in the series with glucosamine-6-phosphate [3] is under 1e-05 s⁻¹.
For ACAAAAGCGCCAGAACUACAGAAAUGUAGUUGACGAGGAGGAGGUUUAUCGAAUUUUCGGCGGAUGCCUCCAAA [U2C], the “self-cleavage kobs at 40 uM GlcN6P” value in the series with glucosamine-6-phosphate [1] was determined as 0.000889 ± 0.00014 s⁻¹. For the same variant, the “self-cleavage kobs at 640 uM GlcN6P” value in the series with glucosamine-6-phosphate [3] came out at 0.0102 ± 0.0023 s⁻¹. Besides, in the series with glucosamine-6-phosphate [4], the “self-cleavage kobs at 2500 uM GlcN6P” value turned out to be 0.00926 ± 0.003 s⁻¹. In addition, the “self-cleavage kobs at 10000 uM GlcN6P” value with glucosamine-6-phosphate [5] came to 0.0584 ± 0.014 s⁻¹.
On to AUAAAAGCGCCUGAACUACAGAAAUGUAGUUGACGAGGAUGAGGUUUAUCGAAUUUUCGGAGGAUGCCUCCAAA [A12U G40U C61A], for which, in the series with glucosamine-6-phosphate [1], the “self-cleavage kobs at 40 uM GlcN6P” value is under 1e-05 s⁻¹. Further, the “self-cleavage kobs at 10000 uM GlcN6P” value with glucosamine-6-phosphate [5] was under 1e-05 s⁻¹.
Take AUAAAGGCGCCUGAACUACAGAAAUGUAGUUGACGAGGAGGAGGUUUAUCGAAUUUUCGGCGGAGGCCUCCAAA [A6G A12U U65G]: the “self-cleavage kobs at 40 uM GlcN6P” value with glucosamine-6-phosphate [1] is under 1e-05 s⁻¹. For the same variant, the “self-cleavage kobs at 10000 uM GlcN6P” value with glucosamine-6-phosphate [5] amounted to 0.000137 ± 4.1e-05 s⁻¹.
AUAAAAGCGCGAGAACUACAGAAAUGUAGUUGACGACGAUGAGGUUUAUCAAAUUUUCGGCGGACGCCUCCAAA [C11G G37C G40U G51A U65C]: the “self-cleavage kobs at 40 uM GlcN6P” value in the series with glucosamine-6-phosphate [1] is under 1e-05 s⁻¹. Besides, in the series with glucosamine-6-phosphate [5], the “self-cleavage kobs at 10000 uM GlcN6P” value was under 1e-05 s⁻¹.
As to AUAAAAGCGGCAGAACUACAGAAAUGUAGUUGACGAGUAGGAGGUUUAUCGAAUUUUCGGCGGAGGCCUCCAAA [C10G G38U U65G], the “self-cleavage kobs at 40 uM GlcN6P” value with glucosamine-6-phosphate [1] was under 1e-05 s⁻¹. In addition, the “self-cleavage kobs at 10000 uM GlcN6P” value with glucosamine-6-phosphate [5] is under 1e-05 s⁻¹.
Turning to AUAAAAGCGCCAGAACUACAGAAAUGUAGUUGACGAGGAUGAGGUUUAUCGAAUUUUCGGUGGAUGCCUCCAAA [G40U C61U], the “self-cleavage kobs at 40 uM GlcN6P” value with glucosamine-6-phosphate [1] was under 1e-05 s⁻¹. In addition, in the series with glucosamine-6-phosphate [2], the “self-cleavage kobs at 160 uM GlcN6P” value is under 1e-05 s⁻¹.
